# Measurements published in patent US20160264649A1.
# Assays:
# Assay in all cases: cell-based or functional assay
# [1] = biological target: HIV-1 Env of isolate 92TH021 (subtype AE) (HIV-1)
# [2] = biological target: HIV-1 Env of isolate 92UG031 (subtype A) (HIV-1)
# [3] = biological target: HIV-1 Env of isolate 92UG037 (subtype A) (HIV-1)
# [4] = biological target: HIV-1 Env of isolate 92UG114 (subtype D) (HIV-1)
# [5] = biological target: HIV-1 Env of isolate 92WR009 (subtype A) (HIV-1)
# [6] = biological target: HIV-1 Env of isolate 92WR020 (subtype A) (HIV-1)
# [7] = biological target: HIV-1 Env of isolate 92WR021 (subtype A) (HIV-1)
# [8] = biological target: HIV-1 Env of isolate 92WR024 (subtype A) (HIV-1)
# [9] = biological target: HIV-1 Env of isolate 92WR026 (subtype A) (HIV-1)
# [10] = biological target: HIV-1 Env of isolate 93UG077 (subtype A) (HIV-1)
# [11] = biological target: HIV-1 Env of isolate 93WR029 (subtype A) (HIV-1)
# [12] = biological target: HIV-1 Env of isolate 94 KE 105 (subtype AC) (HIV-1)
# [13] = biological target: HIV-1 Env of isolate 94UG103 (subtype A) (HIV-1)
# [14] = biological target: HIV-1 Env of isolate CMU02 (subtype AE) (HIV-1)
# [15] = biological target: HIV-1 Env of isolate MGRM-AE-001 (subtype AE) (HIV-1)
# [16] = biological target: HIV-1 Env of isolate MGRM-AE-002 (subtype AE) (HIV-1)
# [17] = biological target: HIV-1 Env of isolate MGRM-AE-003 (subtype AE) (HIV-1)
# [18] = biological target: HIV-1 Env of isolate MGRM-AE-004 (subtype AE) (HIV-1)
# [19] = biological target: HIV-1 Env of isolate MGRM-AE-005 (subtype AE) (HIV-1)
# [20] = biological target: HIV-1 Env of isolate MGRM-AE-006 (subtype AE) (HIV-1)
# [21] = biological target: HIV-1 Env of isolate MGRM-AE-007 (subtype AE) (HIV-1)
# [22] = biological target: HIV-1 Env of isolate MGRM-AE-008 (subtype AE) (HIV-1)
# [23] = biological target: HIV-1 Env of isolate MGRM-D-001 (subtype D) (HIV-1)
# [24] = biological target: HIV-1 Env of isolate MGRM-D-002 (subtype D) (HIV-1)
# [25] = biological target: HIV-1 Env of isolate MGRM-D-003 (subtype D) (HIV-1)
# [26] = biological target: HIV-1 Env of isolate MGRM-D-004 (subtype D) (HIV-1)
# [27] = biological target: HIV-1 Env of isolate MGRM-D-005 (subtype D) (HIV-1)
# [28] = biological target: HIV-1 Env of isolate MGRM-D-008 (subtype D) (HIV-1)
# [29] = biological target: HIV-1 Env of isolate MGRM-D-011 (subtype D) (HIV-1)
# [30] = biological target: HIV-1 Env of isolate MGRM-D-012 (subtype D) (HIV-1)
# [31] = biological target: HIV-1 Env of isolate MGRM-D-013 (subtype D) (HIV-1)
# [32] = biological target: HIV-1 Env of isolate MGRM-D-014 (subtype D) (HIV-1)
# [33] = biological target: HIV-1 Env of isolate MGRM-D-016 (subtype D) (HIV-1)
# [34] = biological target: HIV-1 Env of isolate MGRM-D-018 (subtype D) (HIV-1)
# [35] = biological target: HIV-1 Env of isolate MGRM-D-019 (subtype D) (HIV-1)
# [36] = biological target: HIV-1 Env of isolate MGRM-D-020 (subtype D) (HIV-1)
# [37] = biological target: HIV-1 Env of isolate MGRM-D-021 (subtype D) (HIV-1)
# [38] = biological target: HIV-1 Env of isolate MGRM-D-022 (subtype D) (HIV-1)
# [39] = biological target: HIV-1 Env of isolate MGRM-D-024 (subtype D) (HIV-1)
# [40] = biological target: HIV-1 Env of isolate MGRM-D-026 (subtype D) (HIV-1)
# [41] = biological target: HIV-1 Env of isolate MGRM-D-028 (subtype D) (HIV-1)
# [42] = biological target: HIV-1 Env of isolate MGRM-D-029 (subtype D) (HIV-1)
# [43] = biological target: HIV-1 Env of isolate MGRM-F1-004 (subtype F) (HIV-1)
# [44] = biological target: HIV-1 Env of isolate MGRM-F1-006 (subtype F) (HIV-1)
# [45] = biological target: HIV-1 Env of isolate MGRM-F1-008 (subtype F) (HIV-1)
# [46] = biological target: HIV-1 Env of isolate MGRM-F1-010 (subtype F) (HIV-1)
# [47] = biological target: HIV-1 Env of isolate MGRM-F1-012 (subtype F) (HIV-1)
# [48] = biological target: HIV-1 Env of isolate MGRM-F1-013 (subtype F) (HIV-1)
# [49] = biological target: HIV-1 Env of isolate MGRM-F1-014 (subtype F) (HIV-1)
# [50] = biological target: HIV-1 Env of isolate MGRM-F1-015 (subtype F) (HIV-1)
# [51] = biological target: HIV-1 Env of isolate MGRM-F1-016 (subtype F) (HIV-1)
# [52] = biological target: HIV-1 Env of isolate MGRM-F1-017 (subtype F) (HIV-1)
# [53] = biological target: HIV-1 Env of isolate MGRM-F1-018 (subtype F) (HIV-1)
# [54] = biological target: HIV-1 Env of isolate MGRM-F1-020 (subtype F) (HIV-1)
# [55] = biological target: HIV-1 Env of isolate MGRM-F1-021 (subtype F) (HIV-1)
# [56] = biological target: HIV-1 Env of isolate MGRM-F1-022 (subtype F) (HIV-1)
# [57] = biological target: HIV-1 Env of isolate MGRM-F1-023 (subtype F) (HIV-1)
# [58] = biological target: HIV-1 Env of isolate VLGCA1 (subtype A) (HIV-1)
# Sequence of PGT-144 (4970_K22) (antibody) (VH): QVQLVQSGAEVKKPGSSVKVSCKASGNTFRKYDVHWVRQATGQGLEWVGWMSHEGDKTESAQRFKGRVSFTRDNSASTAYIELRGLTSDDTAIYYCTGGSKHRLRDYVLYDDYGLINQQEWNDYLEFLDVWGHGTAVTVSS
# Sequence of PGT-144 (4970_K22) (antibody) (VL): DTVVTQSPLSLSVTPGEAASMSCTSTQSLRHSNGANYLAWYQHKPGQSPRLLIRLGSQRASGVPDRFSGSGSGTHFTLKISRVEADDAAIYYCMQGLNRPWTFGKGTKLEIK
# Sequence of PGT-141 (4964_G22; 4993_K13) (antibody) (VH): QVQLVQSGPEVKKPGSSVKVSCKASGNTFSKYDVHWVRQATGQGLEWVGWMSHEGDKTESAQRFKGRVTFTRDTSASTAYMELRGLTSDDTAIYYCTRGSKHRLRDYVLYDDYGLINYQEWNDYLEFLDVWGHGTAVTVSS
# Sequence of PGT-141 (4964_G22; 4993_K13) (antibody) (VL): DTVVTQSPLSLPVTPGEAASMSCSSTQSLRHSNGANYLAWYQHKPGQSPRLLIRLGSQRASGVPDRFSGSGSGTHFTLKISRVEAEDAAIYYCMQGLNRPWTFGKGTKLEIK
substance,measurement,setting,value
PGT-144 (4970_K22) (antibody),IC50 (pseudovirus neutralization),[1],0.052 µg/mL
same,IC50 (pseudovirus neutralization),[2],2.17 µg/mL
same,IC50 (pseudovirus neutralization),[3],8.24 µg/mL
same,IC50 (pseudovirus neutralization),[4],> 50 µg/mL
same,IC50 (pseudovirus neutralization),[5],0.893 µg/mL
same,IC50 (pseudovirus neutralization),[6],> 50 µg/mL
same,IC50 (pseudovirus neutralization),[7],> 50 µg/mL
same,IC50 (pseudovirus neutralization),[8],16.3 µg/mL
same,IC50 (pseudovirus neutralization),[9],32.7 µg/mL
same,IC50 (pseudovirus neutralization),[10],> 50 µg/mL
same,IC50 (pseudovirus neutralization),[11],4.39 µg/mL
same,IC50 (pseudovirus neutralization),[12],0.29 µg/mL
same,IC50 (pseudovirus neutralization),[13],> 50 µg/mL
same,IC50 (pseudovirus neutralization),[14],> 50 µg/mL
same,IC50 (pseudovirus neutralization),[15],> 50 µg/mL
same,IC50 (pseudovirus neutralization),[16],> 50 µg/mL
same,IC50 (pseudovirus neutralization),[17],> 50 µg/mL
same,IC50 (pseudovirus neutralization),[18],0.104 µg/mL
same,IC50 (pseudovirus neutralization),[19],> 50 µg/mL
same,IC50 (pseudovirus neutralization),[20],> 50 µg/mL
same,IC50 (pseudovirus neutralization),[21],> 50 µg/mL
same,IC50 (pseudovirus neutralization),[22],3.55 µg/mL
same,IC50 (pseudovirus neutralization),[23],> 50 µg/mL
same,IC50 (pseudovirus neutralization),[24],> 50 µg/mL
same,IC50 (pseudovirus neutralization),[25],> 50 µg/mL
same,IC50 (pseudovirus neutralization),[26],> 50 µg/mL
same,IC50 (pseudovirus neutralization),[27],14.8 µg/mL
same,IC50 (pseudovirus neutralization),[28],9.85 µg/mL
same,IC50 (pseudovirus neutralization),[29],> 50 µg/mL
same,IC50 (pseudovirus neutralization),[30],> 50 µg/mL
same,IC50 (pseudovirus neutralization),[31],> 50 µg/mL
same,IC50 (pseudovirus neutralization),[32],0.113 µg/mL
same,IC50 (pseudovirus neutralization),[33],> 50 µg/mL
same,IC50 (pseudovirus neutralization),[34],> 50 µg/mL
same,IC50 (pseudovirus neutralization),[35],> 50 µg/mL
same,IC50 (pseudovirus neutralization),[36],> 50 µg/mL
same,IC50 (pseudovirus neutralization),[37],> 50 µg/mL
same,IC50 (pseudovirus neutralization),[38],> 50 µg/mL
same,IC50 (pseudovirus neutralization),[39],> 50 µg/mL
same,IC50 (pseudovirus neutralization),[40],> 50 µg/mL
same,IC50 (pseudovirus neutralization),[41],> 50 µg/mL
same,IC50 (pseudovirus neutralization),[42],0.459 µg/mL
same,IC50 (pseudovirus neutralization),[43],0.105 µg/mL
same,IC50 (pseudovirus neutralization),[44],20.6 µg/mL
same,IC50 (pseudovirus neutralization),[45],0.507 µg/mL
same,IC50 (pseudovirus neutralization),[46],> 50 µg/mL
same,IC50 (pseudovirus neutralization),[47],> 50 µg/mL
same,IC50 (pseudovirus neutralization),[48],0.509 µg/mL
same,IC50 (pseudovirus neutralization),[49],0.014 µg/mL
same,IC50 (pseudovirus neutralization),[50],> 50 µg/mL
same,IC50 (pseudovirus neutralization),[51],> 50 µg/mL
same,IC50 (pseudovirus neutralization),[52],> 50 µg/mL
same,IC50 (pseudovirus neutralization),[53],> 50 µg/mL
same,IC50 (pseudovirus neutralization),[54],8.93 µg/mL
same,IC50 (pseudovirus neutralization),[55],> 50 µg/mL
same,IC50 (pseudovirus neutralization),[56],0.382 µg/mL
same,IC50 (pseudovirus neutralization),[57],1.16 µg/mL
same,IC50 (pseudovirus neutralization),[58],> 50 µg/mL
PGT-141 (4964_G22; 4993_K13) (antibody),IC50 (pseudovirus neutralization),[1],0.001 µg/mL
same,IC50 (pseudovirus neutralization),[2],0.093 µg/mL
same,IC50 (pseudovirus neutralization),[3],1.28 µg/mL
same,IC50 (pseudovirus neutralization),[4],> 50 µg/mL
same,IC50 (pseudovirus neutralization),[5],0.022 µg/mL
same,IC50 (pseudovirus neutralization),[6],> 50 µg/mL
same,IC50 (pseudovirus neutralization),[7],> 50 µg/mL
same,IC50 (pseudovirus neutralization),[8],0.175 µg/mL
same,IC50 (pseudovirus neutralization),[9],1.78 µg/mL
same,IC50 (pseudovirus neutralization),[10],> 50 µg/mL
same,IC50 (pseudovirus neutralization),[11],0.019 µg/mL
same,IC50 (pseudovirus neutralization),[12],0.204 µg/mL
same,IC50 (pseudovirus neutralization),[13],> 50 µg/mL
same,IC50 (pseudovirus neutralization),[14],> 50 µg/mL
same,IC50 (pseudovirus neutralization),[15],> 50 µg/mL
same,IC50 (pseudovirus neutralization),[16],> 50 µg/mL
same,IC50 (pseudovirus neutralization),[17],> 50 µg/mL
same,IC50 (pseudovirus neutralization),[18],0.001 µg/mL
same,IC50 (pseudovirus neutralization),[19],> 50 µg/mL
same,IC50 (pseudovirus neutralization),[20],> 50 µg/mL
same,IC50 (pseudovirus neutralization),[21],33.1 µg/mL
same,IC50 (pseudovirus neutralization),[22],0.101 µg/mL
same,IC50 (pseudovirus neutralization),[23],> 50 µg/mL
same,IC50 (pseudovirus neutralization),[24],> 50 µg/mL
same,IC50 (pseudovirus neutralization),[25],> 50 µg/mL
same,IC50 (pseudovirus neutralization),[26],> 50 µg/mL
same,IC50 (pseudovirus neutralization),[27],5.15 µg/mL
same,IC50 (pseudovirus neutralization),[28],0.371 µg/mL
same,IC50 (pseudovirus neutralization),[29],> 50 µg/mL
same,IC50 (pseudovirus neutralization),[30],> 50 µg/mL
same,IC50 (pseudovirus neutralization),[31],0.179 µg/mL
same,IC50 (pseudovirus neutralization),[32],0.01 µg/mL
same,IC50 (pseudovirus neutralization),[33],> 50 µg/mL
same,IC50 (pseudovirus neutralization),[34],> 50 µg/mL
same,IC50 (pseudovirus neutralization),[35],1.66 µg/mL
same,IC50 (pseudovirus neutralization),[36],> 50 µg/mL
same,IC50 (pseudovirus neutralization),[37],> 50 µg/mL
same,IC50 (pseudovirus neutralization),[38],> 50 µg/mL
same,IC50 (pseudovirus neutralization),[39],> 50 µg/mL
same,IC50 (pseudovirus neutralization),[40],32.5 µg/mL
same,IC50 (pseudovirus neutralization),[41],> 50 µg/mL
same,IC50 (pseudovirus neutralization),[42],0.057 µg/mL
same,IC50 (pseudovirus neutralization),[43],0.021 µg/mL
same,IC50 (pseudovirus neutralization),[44],8.99 µg/mL
same,IC50 (pseudovirus neutralization),[45],0.193 µg/mL
same,IC50 (pseudovirus neutralization),[46],> 50 µg/mL
same,IC50 (pseudovirus neutralization),[47],> 50 µg/mL
same,IC50 (pseudovirus neutralization),[48],0.043 µg/mL
same,IC50 (pseudovirus neutralization),[49],0.001 µg/mL
same,IC50 (pseudovirus neutralization),[50],> 50 µg/mL
same,IC50 (pseudovirus neutralization),[51],> 50 µg/mL
same,IC50 (pseudovirus neutralization),[52],30.8 µg/mL
same,IC50 (pseudovirus neutralization),[53],0.785 µg/mL
same,IC50 (pseudovirus neutralization),[54],1.15 µg/mL
same,IC50 (pseudovirus neutralization),[55],> 50 µg/mL
same,IC50 (pseudovirus neutralization),[56],0.114 µg/mL
same,IC50 (pseudovirus neutralization),[57],0.307 µg/mL
same,IC50 (pseudovirus neutralization),[58],2.07 µg/mL
